Primed or numbered codes have the meaning given here. No end group written: not given here. FITC′ = fluorescein isothiocyanate; Ahx = NCCCCCC(=O)O
How the values were obtained:
[1] = target: T1, recombinant human TLR4-MD2 protein (R&D Systems) (human, UniProt O00206 24-631; Q9Y6Y9 17-160); assay: fluorescence polarization, 2 µM FITC-SPA4 peptide with increasing recombinant TLR4-MD2, one-site binding fit, one representative experiment
T1 construct: range 24-631;range 17-160; Bought protein, described as a mixture of recombinant human TLR4 and MD2 proteins expressed in NS0 cells; also called recombinant-TLR4-MD2 protein; soluble recombinant TLR4-MD2
Experimental: The background fluorescence polarization values were subtracted and plotted. The binding plot was then fitted into a one-site binding model using standard regression analysis and Kd values were noted. Results are from one representative experiment out of a total of three separate experiments performed at different times.
Regression analysis was carried out using the Graphpad Prism program (Graphpad software, La Zolla, Calif.). Experimental data were curve-fitted using Graphpad Prism program, and the binding affinity (Kd) was determined.

[2] = target: T1, recombinant human TLR4-MD2 protein (R&D …); assay: fluorescence polarization, 2 µM FITC-SPA4 with 0-5.6 µM TLR4-MD2, one-site fit, average Kd with blank subtraction; with blank subtraction
Experimental: (§1) Experimental data were curve-fitted using Graphpad Prism program, and the binding affinity (Kd) was determined.
(§2) Lower values of the Kd indicate strong binding affinity.

[3] = target: T1, recombinant human TLR4-MD2 protein (R&D …); assay: fluorescence polarization, 2 µM FITC-SPA4 with 0-5.6 µM TLR4-MD2, one-site fit, average Kd without blank subtraction; without blank subtraction
Experimental: as §1, §2

T1 sequence (O00206 other isoform, or with tags, fused parts or gaps limits assumed, form in doubt, chain 1 of 2): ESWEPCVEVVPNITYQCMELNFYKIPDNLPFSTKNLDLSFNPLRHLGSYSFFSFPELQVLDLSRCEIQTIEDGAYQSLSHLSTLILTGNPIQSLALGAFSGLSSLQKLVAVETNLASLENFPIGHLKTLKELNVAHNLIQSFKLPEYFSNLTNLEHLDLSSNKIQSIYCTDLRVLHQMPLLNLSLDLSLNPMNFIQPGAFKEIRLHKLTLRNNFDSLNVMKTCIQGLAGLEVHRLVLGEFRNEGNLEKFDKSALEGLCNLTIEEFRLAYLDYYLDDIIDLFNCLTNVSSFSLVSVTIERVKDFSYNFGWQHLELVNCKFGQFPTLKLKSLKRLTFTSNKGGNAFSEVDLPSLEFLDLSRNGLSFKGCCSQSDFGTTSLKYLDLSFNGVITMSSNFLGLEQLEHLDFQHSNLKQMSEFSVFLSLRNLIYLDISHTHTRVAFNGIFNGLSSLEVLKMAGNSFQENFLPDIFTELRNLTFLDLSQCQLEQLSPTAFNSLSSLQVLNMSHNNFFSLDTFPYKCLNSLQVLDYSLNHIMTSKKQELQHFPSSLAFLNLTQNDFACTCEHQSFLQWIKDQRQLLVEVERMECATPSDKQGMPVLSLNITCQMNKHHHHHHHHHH
T1 sequence (Q9Y6Y9 other isoform, or with tags, fused parts or gaps limits assumed, form in doubt, chain 2 of 2): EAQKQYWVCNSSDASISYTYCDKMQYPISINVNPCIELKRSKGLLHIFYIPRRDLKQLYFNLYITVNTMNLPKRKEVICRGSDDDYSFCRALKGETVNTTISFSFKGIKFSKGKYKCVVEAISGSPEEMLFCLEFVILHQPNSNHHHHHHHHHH

B1: FITC-SPA4 peptide (peptide)
peptide: {FITC′-Ahx}-GDFRYSDGTPVNYTNWYRGE
notes: also called fluorescein isothiocyanate conjugated SPA4 peptide
B1 gave a Kd [1] of 314 nM, a Kd [2] of 407 nM and a Kd [3] of 255 nM.

— patent US20140256613A1 (BOARD OF REGENTS OF THE UNIVERSITY OF OKLAHOMA, published 2014)
